{
  "source": "paper PMC11243334",
  "about": "“Synthesis and Evaluation of the First ^68Ga-Labeled C-Terminal Hydroxamate-Derived Gastrin-Releasing Peptide Receptor-Targeted Tracers for Cancer Imaging with Positron Emission Tomography” (Molecules, 2024)",
  "key": {"[1]": {"system": "PC-3 tumor xenografts", "test": "PET/CT imaging in mice bearing PC-3 tumor xenografts", "format": "in vivo", "conditions": "1 h post injection, mice", "description": "(§1) Imaging and biodistribution studies were performed on male NOD.Cg-Rag1^tm1Mom Il2rg^tm1Wjl/SzJ (NRG) mice following previously published procedures. The experiments were conducted following the guidelines established by the Canadian Council on Animal Care and approved by Animal Ethics Committee of the University of British Columbia. The mice were sedated (2.5% isoflurane in oxygen) and injected with 5 × 10^6 PC-3 cells (100 µL; 1:1 PBS/Matrigel) subcutaneously behind the left shoulder. The tumor-bearing mice were used for PET/CT imaging and biodistribution studies when the tumor grew to 5–8 mm in diameter.\nPET/CT imaging experiments were performed on a Siemens (Knoxville, TN, USA) Inveon micro PET/CT scanner. Each tumor-bearing mouse was injected with ~3–6 MBq of ^68Ga-labeled tracer through a lateral caudal tail vein under anaesthesia. At around 50 min post injection, a 10 min CT scan was obtained first for localization and attenuation correction after segmentation for reconstructing the PET image, followed by a 10 min static PET scan."}, "[2]": {"test": "physchem", "conditions": "n-octanol/DPBS, pH 7.4", "description": "LogD7.4 values of [^68Ga]Ga-LW02075, [^68Ga]Ga-LW02050, and [^68Ga]Ga-SB3 were measured via the shake flask method. An aliquot of the ^68Ga-labeled tracer (~1.85 MBq) was added to a 15 mL falcon tube containing 3 mL of n-octanol and 3 mL of DPBS (pH 7.4) followed by 1 min of vortex (n = 3). After that, the mixture was centrifuged at 5000 rpm for 10 min, and samples of the n-octanol (1 mL) and buffer (1 mL) layers were collected and counted on a Perkin Elmer (Waltham, MA, USA) Wizard2 2480 automatic gamma counter. The LogD7.4 values of [^68Ga]Ga-LW02075, [^68Ga]Ga-LW02050, and [^68Ga]Ga-SB3 were calculated following the equation: LogD7.4 = log10[(counts in the n-octanol phase)/(counts in the buffer phase)]."}, "[3]": {"test": "Ex vivo biodistribution in PC-3 tumor-bearing mice", "conditions": "male, mouse, iv, total radioactivity, 1 h post injection, mean ± SD, n = 4; for tissue uptake at 1 h: NOD.Cg-Rag1^tm1Mom Il2rg^tm1Wjl/SzJ (NRG); for tissue to tissue ratio at 1 h: NOD.Cg-Rag1tm1Mom Il2rgtm1Wjl/SzJ (NRG)", "description": "Biodistribution studies were conducted for ^68Ga-labeled SB3, LW02075 and LW02050 in PC-3 tumor-bearing mice (n = 4).\nas §1\nFor biodistribution studies, the mice were injected with the radiotracer (~2–4 MBq), as described above. Blocking of [^68Ga]Ga-LW02075 and [^68Ga]Ga-LW02050 was conducted by co-injection with 100 μg nonradioactive Ga-LW02075 and Ga-LW02050, respectively, through a lateral caudal tail vein under anaesthesia. At 1 h post injection, the mice were sedated and euthanized by CO2 inhalation. Blood was collected via cardiac puncture, and organs/tissues of interest were collected, weighed, and counted on a Perkin Elmer (Waltham, MA, USA) Wizard2 2480 automatic gamma counter."}, "[4]": {"molecular_target": "GRPR", "conditions": "ref 14 (Devin et al.); cited from earlier work", "description": "Most of the reported GRPR-targeted agonist and antagonist sequences contain a C-terminal amide. […] To the best of our knowledge, no GRPR-targeted radioligands containing a C-terminal hydroxamate have ever been reported. Therefore, the goal of this study was to evaluate the potential of C-terminal hydroxamate- ..."}, "[5]": {"molecular_target": "T1, GRPR (Homo sapiens, UniProt P30550)", "T1 construct": "host or cells: PC-3 human prostate adenocarcinoma cells", "T1 sequence (P30550 whole entry)": "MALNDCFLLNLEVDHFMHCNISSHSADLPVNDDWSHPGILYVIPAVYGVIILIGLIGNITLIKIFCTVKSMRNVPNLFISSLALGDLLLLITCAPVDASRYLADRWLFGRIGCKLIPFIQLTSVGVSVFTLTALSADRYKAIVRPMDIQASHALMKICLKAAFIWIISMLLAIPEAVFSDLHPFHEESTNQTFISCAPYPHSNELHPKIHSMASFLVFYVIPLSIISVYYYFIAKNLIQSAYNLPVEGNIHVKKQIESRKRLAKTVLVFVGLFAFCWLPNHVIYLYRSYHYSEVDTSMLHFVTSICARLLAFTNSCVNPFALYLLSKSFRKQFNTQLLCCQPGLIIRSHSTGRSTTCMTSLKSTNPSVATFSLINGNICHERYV", "test": "Fluorometric intracellular calcium release assay in PC-3 cells", "format": "cell-based", "conditions": "for Ca2+ mobilization, relative fluorescence units (RFUs = max − min): 50 nM ligand, FLIPR Calcium 6, signal acquired 2 min, n = 3", "description": "The antagonist/agonist characteristics of Ga-LW02075 and Ga-LW02050 were determined following previously published procedures. A 96-well clear-bottomed black plate was seeded with 5 × 10^4 PC-3 cells/well in 100 μL growth media 24 h prior to the assay. A calcium-sensitive dye (FLIPR Calcium 6 assay kit from Molecular Devices, San Jose, CA, USA) dissolved in the loading buffer (100 μL/well) was added into the plate followed by 1 h incubation at 37 °C. Then, the plate was transferred into a FlexStation 3 microplate reader (Molecular Devices, San Jose, CA, USA) to record the fluorescent signals. Ga-complexed SB3 derivatives (50 nM), [D-Phe^6,Leu-NHEt^13,des-Met^14]Bombesin(6-14) (50 nM, antagonist control), bombesin (50 nM, agonist control), adenosine triphosphate (ATP, 50 nM, positive control), or DPBS (blank control) were added. The fluorescent signals were acquired for 2 min (λEx = 485 nm; λEm = 525 nm; n = 3). The relative fluorescent units (RFUs = max − min) were calculated to determine the agonistic/antagonistic characteristics of the tested ligands."}, "[6]": {"molecular_target": "T1, GRPR", "test": "In vitro competition binding assay, displacement of [125I-Tyr4]Bombesin from PC-3 cells", "conditions": "GRPR-expressing PC-3 cells, 0.01 nM [125I-Tyr4]Bombesin, 1 h at 37 °C, ligand 10 μM to 1 pM, n = 3", "description": "The Ki values of Ga-LW02075, Ga-LW02050, and Ga-SB3 were measured using GRPR-expressing PC-3 prostate cancer cells via a cell-based competition binding assay. Ga-SB3, Ga-LW02075, and Ga-LW02050 inhibited the binding of [^125I-Tyr^4]Bombesin towards PC-3 cells in a dose-dependent manner (Figure 2).\nInhibition constants (Ki) of Ga-SB3, Ga-LW02075, and Ga-LW02050 toward GRPR were measured by in vitro competition binding assay following previously published procedures. The assays were conducted in triplicate with varied concentrations (10 μM to 1 pM) of Ga-SB3, Ga-LW02075, and Ga-LW02050. Briefly, 2 × 10^5 cells/well of PC-3 cells were seeded in 24-well poly-D-lysine plates 24 h prior to the assay. The growth medium was replaced with 400 μL of reaction medium (RPMI 1640 containing 2 mg/mL bovine serum albumin (BSA) and 20 mM HEPES), followed by 1 h incubation at 37 °C. The tested ligands in 50 μL reaction medium and 0.01 nM [^125I-Tyr^4]Bombesin in 50 μL reaction medium were added into the wells, and then incubated at 37 °C with moderate agitation for 1 h. […] Data analysis was performed using nonlinear regression with GraphPad (San Diego, CA, USA) Prism 10 software (Version 10.1.1)."}},
  "note": "Read-outs that look alike come from different tables or passages of the source.",
  "data": [
    {"molecule": "CCNC(=O)[C@H](CC(C)C)NC(=O)[C@H](Cc1c[nH]cn1)NC(=O)CNC(=O)[C@@H](NC(=O)[C@H](C)NC(=O)[C@H](Cc1c[nH]c2ccccc12)NC(=O)[C@H](CCC(N)=O)NC(=O)[C@@H](Cc1ccccc1)NC(=O)COCC(=O)Nc1ccc(CNC(=O)CN2CCN(CC(=O)O)CCN(CC(=O)O)CCN(CC(=O)O)CC2)cc1)C(C)C", "note": "[[^68Ga]Ga-SB3, [^68Ga]Ga-DOTA-pABzA-DIG-D-Phe-Gln-Trp-Ala-Val-Gly-His-Leu-NHEt, metal not drawn, reference compound]", "values": [
      {"measurement": "Excretion pathway in PET images", "setting": "[1]", "result": "excreted primarily through the renal pathway"},
      {"measurement": "Pancreas in PET images", "setting": "[1]", "result": "high pancreas uptake"},
      {"measurement": "logD", "setting": "[2]", "result": "-2.47 ± 0.09"},
      {"measurement": "tissue uptake at 1 h", "setting": "[3]; PC-3 tumor, read-out: PC-3 tumor uptake", "result": "6.98 ± 1.36", "unit": "%ID/g"},
      {"measurement": "tissue uptake at 1 h", "setting": "[3]; adrenal glands, read-out: Adrenal glands uptake", "result": "2.07 ± 0.66", "unit": "%ID/g"},
      {"measurement": "tissue uptake at 1 h", "setting": "[3]; blood, read-out: Blood uptake", "result": "0.5 ± 0.09", "unit": "%ID/g"},
      {"measurement": "tissue uptake at 1 h", "setting": "[3]; bone, read-out: Bone uptake", "result": "0.12 ± 0.01", "unit": "%ID/g"},
      {"measurement": "tissue uptake at 1 h", "setting": "[3]; brain, read-out: Brain uptake", "result": "0.04 ± 0.01", "unit": "%ID/g"},
      {"measurement": "tissue uptake at 1 h", "setting": "[3]; fat, read-out: Fat uptake", "result": "0.05 ± 0.01", "unit": "%ID/g"},
      {"measurement": "tissue uptake at 1 h", "setting": "[3]; heart, read-out: Heart uptake", "result": "0.16 ± 0.02", "unit": "%ID/g"},
      {"measurement": "tissue uptake at 1 h", "setting": "[3]; kidneys, read-out: Kidneys uptake", "result": "2.26 ± 0.26", "unit": "%ID/g"},
      {"measurement": "tissue uptake at 1 h", "setting": "[3]; large intestine, read-out: Large intestine uptake", "result": "2.2 ± 0.89", "unit": "%ID/g"},
      {"measurement": "tissue uptake at 1 h", "setting": "[3]; liver, read-out: Liver uptake", "result": "2.1 ± 0.45", "unit": "%ID/g"},
      {"measurement": "tissue uptake at 1 h", "setting": "[3]; lungs, read-out: Lungs uptake", "result": "1.18 ± 0.23", "unit": "%ID/g"},
      {"measurement": "tissue uptake at 1 h", "setting": "[3]; muscle, read-out: Muscle uptake", "result": "0.18 ± 0.1", "unit": "%ID/g"},
      {"measurement": "tissue uptake at 1 h", "setting": "[3]; pancreas, read-out: Pancreas uptake", "result": "37.3 ± 6.9", "unit": "%ID/g"},
      {"measurement": "tissue uptake at 1 h", "setting": "[3]; small intestine, read-out: Small intestine uptake", "result": "6.03 ± 1.07", "unit": "%ID/g"},
      {"measurement": "tissue uptake at 1 h", "setting": "[3]; spleen, read-out: Spleen uptake", "result": "0.33 ± 0.17", "unit": "%ID/g"},
      {"measurement": "tissue uptake at 1 h", "setting": "[3]; stomach, read-out: Stomach uptake", "result": "1.42 ± 0.57", "unit": "%ID/g"},
      {"measurement": "tissue uptake at 1 h", "setting": "[3]; testes, read-out: Testes uptake", "result": "0.13 ± 0.01", "unit": "%ID/g"},
      {"measurement": "tissue to tissue ratio at 1 h", "setting": "[3]; tumor and bone, read-out: Tumor/bone uptake ratio", "result": "61 ± 15.5"},
      {"measurement": "tissue to tissue ratio at 1 h", "setting": "[3]; tumor and kidney, read-out: Tumor/kidney uptake ratio", "result": "3.09 ± 0.51"},
      {"measurement": "tissue to tissue ratio at 1 h", "setting": "[3]; tumor and muscle, read-out: Tumor/muscle uptake ratio", "result": "48.2 ± 24.9"},
      {"measurement": "tissue to tissue ratio at 1 h", "setting": "[3]; tumor and pancreas, read-out: Tumor/pancreas uptake ratio", "result": "0.19 ± 0.03"},
      {"measurement": "tissue to tissue ratio at 1 h", "setting": "[3]; tumor and whole blood, read-out: Tumor/blood uptake ratio", "result": "14.4 ± 3.88"}
    ]},
    {"molecule": "D-Phe-Gln-Trp-Ala-Val-Gly-His-Leu-NHOH [C-terminal hydroxamate-derived GRPR-targeted antagonist reported by Devin et al]", "values": [
      {"measurement": "Ki", "setting": "[4]", "result": 5.8, "unit": "nM"}
    ]},
    {"molecule": "[D-Phe^6,Leu-NHEt^13,des-Met^14]Bombesin(6-14)", "values": [
      {"measurement": "Ca2+ mobilization, relative fluorescence units (RFUs = max − min)", "setting": "[5]", "result": "47.2 ± 6.61", "unit": "RFUs"}
    ]},
    {"molecule": "Ga-DOTA-pABzA-DIG-D-Phe-Gln-Trp-Ala-Val-Gly-His-Leu-NHEt [Ga-SB3, reference compound]", "values": [
      {"measurement": "Ki", "setting": "[6]", "result": "1.2 ± 0.31", "unit": "nM"}
    ]},
    {"molecule": "bombesin", "values": [
      {"measurement": "Ca2+ mobilization, relative fluorescence units (RFUs = max − min)", "setting": "[5]", "result": "371 ± 65.0", "unit": "RFUs"}
    ]},
    {"molecule": "Ga-DOTA-Pip-D-Phe-Gln-Trp-Ala-Val-Gly-His-Leu-NHOH [Ga-LW02050]", "values": [
      {"measurement": "Ca2+ mobilization, relative fluorescence units (RFUs = max − min)", "setting": "[5]", "result": "25.8 ± 7.95", "unit": "RFUs"},
      {"measurement": "Agonist/antagonist characteristics", "setting": "[5]; 50 nM, calcium release assay", "result": "antagonist"},
      {"measurement": "Ki", "setting": "[6]", "result": "8.53 ± 1.52", "unit": "nM"}
    ]},
    {"molecule": "Nc1ncnc2c1ncn2[C@@H]1O[C@H](COP(=O)(O)OP(=O)(O)OP(=O)(O)O)[C@@H](O)[C@H]1O", "note": "[ATP, adenosine triphosphate]", "values": [
      {"measurement": "Ca2+ mobilization, relative fluorescence units (RFUs = max − min)", "setting": "[5]", "result": "271 ± 24.4", "unit": "RFUs"}
    ]}
  ]
}
